Reference: patent US20150038673A1
Bridge positions count the residues as written; N and C are the ends. Square brackets hold non-standard residues; d marks the D form.

Experiments:
[1] = target: anti-β1-ECII antibodies in rat sera preferentially reacting with the Cys/Ser mutated cyclopeptides (type1 reaction, n=64) (rat); assay: ELISA competition, type1 sera (n=64), linear 25AA Cys/Cys peptide as antigen
[2] = target: anti-β1-ECII antibodies of GST/β1-ECII-immunized antibody-positive rats (sera or isolated IgG fractions) (rat); assay: ELISA competition, IgG of n=78 rats preincubated with peptide, linear 25AA Cys/Cys peptide as antigen
[3] = target: anti-β1-ECII antibodies in rat sera reacting with both the Cys/Ser and the Ser/Cys mutated cyclopeptides (type2 reaction, n=5) (rat); assay: ELISA competition, type2 sera (n=5), linear 25AA Cys/Cys peptide as antigen
[4] = target: anti-β1-ECII antibodies of GST/β1-ECII-immunized antibody-positive rats (sera or isolated IgG fractions) (rat); assay: dose-dependent ELISA competition, n=6 rat sera
[5] = target: anti-β1-ECII antibodies of GST/β1-ECII-immunized antibody-positive rats (sera or isolated IgG fractions) (rat); assay: ELISA after over-night incubation of n=6 rat sera with cyclopeptide (FIG. 27B, mean)

Binder	blocking capacity (% of blocked versus non-blocked ELISA-reactivity) [1] [%]	blocking capacity (% of blocked versus non-blocked ELISA-reactivity) [2] [%]	blocking capacity (% of blocked versus non-blocked ELISA-reactivity) [3] [%]	decrease in free anti-beta1-ECII antibodies (%) at 8-fold molar excess of peptide [4] [%]	decrease in free anti-beta1-ECII antibodies (%) at 20-fold molar excess of peptide [4] [%]	decrease in free anti-beta1-ECII antibodies (%) at 80-fold molar excess of peptide [4] [%]	blocking-efficiency (% of the ELISA signals of unblocked sera) [5] [%]	decrease in receptor antibody-titers (%) at 8-fold molar excess of peptide [4] [%]	decrease in receptor antibody-titers (%) at 20-fold molar excess of peptide [4] [%]	decrease in receptor antibody-titers (%) at 80-fold molar excess of peptide [4] [%]
cyclo(ADEARRCYNDPKSCDFV[dE]) (disulfide 7-14 (inferred)) [β1-ECII-18AA Ser/Cys cyclopeptide mutant with D-Glu ring closure (formula XII)]	1	1	33							
cyclo(ARAESDEARRCYNDPKCSDFVTNRQ) (disulfide 11-17; SMILES CC(C)[C@@H]1NC(=O)[C@H](Cc2ccccc2)NC(=O)[C@H](CC(=O)O)NC(=O)[C@H](CO)NC(=O)[C@@H]2CSSC[C@H](NC(=O)[C@H](CCCNC(=N)N)NC(=O)[C@H](CCCNC(=N)N)NC(=O)[C@H](C)NC(=O)[C@H](CCC(=O)O)NC(=O)[C@H](CC(=O)O)NC(=O)[C@H](CO)NC(=O)[C@H](CCC(=O)O)NC(=O)[C@H](C)NC(=O)[C@H](CCCNC(=N)N)NC(=O)[C@H](C)NC(=O)[C@H](CCC(N)=O)NC(=O)[C@H](CCCNC(=N)N)NC(=O)[C@H](CC(N)=O)NC(=O)[C@H]([C@@H](C)O)NC1=O)C(=O)N[C@@H](Cc1ccc(O)cc1)C(=O)N[C@@H](CC(N)=O)C(=O)N[C@@H](CC(=O)O)C(=O)N1CCC[C@H]1C(=O)N[C@@H](CCCCN)C(=O)N2) [ECII-25AA Cys/Ser mutant (Gln-)cyclopeptide (formula VII)]	69		48	30	49	83				
cyclo(ADEARRCYNDPKCSDFVQ) (disulfide 7-13; SMILES CC(C)[C@@H]1NC(=O)[C@H](Cc2ccccc2)NC(=O)[C@H](CC(=O)O)NC(=O)[C@H](CO)NC(=O)[C@@H]2CSSC[C@H](NC(=O)[C@H](CCCNC(=N)N)NC(=O)[C@H](CCCNC(=N)N)NC(=O)[C@H](C)NC(=O)[C@H](CCC(=O)O)NC(=O)[C@H](CC(=O)O)NC(=O)[C@H](C)NC(=O)[C@H](CCC(N)=O)NC1=O)C(=O)N[C@@H](Cc1ccc(O)cc1)C(=O)N[C@@H](CC(N)=O)C(=O)N[C@@H](CC(=O)O)C(=O)N1CCC[C@H]1C(=O)N[C@@H](CCCCN)C(=O)N2) [ECII-18AA Cys/Ser mutant (Gln-)cyclopeptide (formula VI)]	68		50	53	66	85	60			
cyclo(ADEARRCYNDPKCSDFV[dE]) (disulfide 7-13; SMILES CC(C)[C@@H]1NC(=O)[C@H](Cc2ccccc2)NC(=O)[C@H](CC(=O)O)NC(=O)[C@H](CO)NC(=O)[C@@H]2CSSC[C@H](NC(=O)[C@H](CCCNC(=N)N)NC(=O)[C@H](CCCNC(=N)N)NC(=O)[C@H](C)NC(=O)[C@H](CCC(=O)O)NC(=O)[C@H](CC(=O)O)NC(=O)[C@H](C)NC(=O)[C@@H](CCC(=O)O)NC1=O)C(=O)N[C@@H](Cc1ccc(O)cc1)C(=O)N[C@@H](CC(N)=O)C(=O)N[C@@H](CC(=O)O)C(=O)N1CCC[C@H]1C(=O)N[C@@H](CCCCN)C(=O)N2) [β1-ECII-18AA Cys/Ser cyclopeptide mutant with D-Glu ring closure (formula VIII)]	69	69	47							
cyclo(ARAESDEARRCYNDPKCCDFVTNRQ) (also: three Cys (11, 17, 18), disulfide pairing not defined) [3 Cys-containing β1-ECII-25AA Cys/Cys cyclopeptide]	65	67	72				73.4			
cyclo(ADEARRCYNDPKCCDFVQ) (also: three Cys (7, 13, 14), disulfide pairing not defined) [3 Cys-containing β1-ECII-18AA Cys/Cys cyclopeptide]	59	60	67	46	56	71	66.1			
cyclo(ARAESDEARRCYNDPKSCDFVTNRQ) (disulfide 11-18 (inferred)) [β1-ECII-25AA Ser/Cys mutant (Gln-)cyclopeptide (formula XI)]	6	6	37							
cyclo(ADEARRCYNDPKSCDFVQ) (disulfide 7-14 (inferred)) [β1-ECII-18AA Ser/Cys mutant (Gln-)cyclopeptide (formula X)]	1		47							
ARAESDEARRCYNDPKCCDFVTNRQ [linear non-mutated 3 Cys-containing ECII-25AA Cys/Cys (Gln25) peptide]		55						24	35	50
ADEARRCYNDPKCSDFVQ [linear ECII-18AA Cys/Ser mutated (Gln18-)peptide]								24	35	50
cyclo(RAESDEARRCYNDPKCCDFVTG) (also: disulphide pairing among Cys10, Cys16, Cys17 not defined) [cyc22AA Cys/Cys, 3 cysteine-containing cyclic β1-ECII 22AA peptide with a Gly closure site]							82			
cyclo(RAESDEARRCYNDPKCSDFVTG) (disulfide 10-16; SMILES CC(C)[C@@H]1NC(=O)[C@H](Cc2ccccc2)NC(=O)[C@H](CC(=O)O)NC(=O)[C@H](CO)NC(=O)[C@@H]2CSSC[C@H](NC(=O)[C@H](CCCNC(=N)N)NC(=O)[C@H](CCCNC(=N)N)NC(=O)[C@H](C)NC(=O)[C@H](CCC(=O)O)NC(=O)[C@H](CC(=O)O)NC(=O)[C@H](CO)NC(=O)[C@H](CCC(=O)O)NC(=O)[C@H](C)NC(=O)[C@H](CCCNC(=N)N)NC(=O)CNC(=O)[C@H]([C@@H](C)O)NC1=O)C(=O)N[C@@H](Cc1ccc(O)cc1)C(=O)N[C@@H](CC(N)=O)C(=O)N[C@@H](CC(=O)O)C(=O)N1CCC[C@H]1C(=O)N[C@@H](CCCCN)C(=O)N2) [ECII-22AA Cys/Ser mutant (Gly-)cyclopeptide (formula IX′)]							74.9			
